From patent US20160024487A1 (Novo Nordisk, published 2016)
Where no end group is shown, it is not given here. The star is where a group is joined. Dnp = O=[N+]([O-])c1ccc(*)c([N+](=O)[O-])c1; 2Abz = Nc1ccccc1C(=O)O

Target: Human plasma purified α-thrombin (human, UniProt P00734 328-622)
Assay: cell-based or functional assay

Fold-Improved (FpA): 1 fold
Fold-Improved (PAR-1): 0.1 fold
B1: Lys(Dnp)-DFLAEGGGVRIVGG-Lys(Abz) (peptide)
peptide: K(Dnp)DFLAEGGGVRIVGGK(2Abz)
